Data reported in paper PMC12866179, “Oxidized MIF is an Alzheimer’s disease drug target relaying external risk factors to tau pathology” (Cell Reports Medicine, 2025).

Target: recombinant human MIF-C80W (human)
Experiment: SEC-MALS; 100 uM MIF (WT or C80W) in 20 mM phosphate buffer, with or without 100 uM PAV-174; TSKgel G2000SWXL, 0.5 mL/min, 25 C; UV 280 nm and miniDawn Treos light scattering

stoichiometry N: 3
Substance: recombinant human MIF-C80W (natural protein)
